Measured values reported in PMC12102759 (2025).

B1: SH3BP2 peptide 410-425 (SH3 domain-binding protein 2), 16-mer library wild type / TNKS ANK (TNKS 12 ANK repeats, residues 174-649) (parent complex)
chain 1: LPHLQRSPPDGQSFRS
chain 2: TGVPAVSGALRELLEACRNGDVSRVKRLVDAANVNAKDMAGRKSSPLHFAAGFGRKDVVEHLLQMGANVHARDDGGLIPLHNACSFGHAEVVSLLLCQGADPNARDNWNYTPLHEAAIKGKIDVCIVLLQHGADPNIRNTDGKSALDLADPSAKAVLTGEYKKDELLEAARSGNEEKLMALLTPLNVNCHASDGRKSTPLHLAAGYNRVRIVQLLLQHGADVHAKDKGGLVPLHNACSYGHYEVTELLLKHGACVNAMDLWQFTPLHEAASKNRVEVCSLLLSHGADPTLVNCHGKSAVDMAPTPELRERLTYEFKGHSLLQAAREADLAKVKKTLALEIINFKQPQSHETALHCAVASLHPKRKQVTELLLRKGANVNEKNKDFMTPLHVAAERAHNDVMEVLHKHGAKMNALDTLGQTALHRAALAGHLQTCRLLLSYGSDPSIISLQGFTAAQMGNEAVQQILSESTPIRTSD

Variants of: B1
Test: proteomic peptide phage display deep mutational scan (ProP-PD DMS): M13 P8 16-mer library selected against immobilised GST-tagged bait for four days (rounds), NGS of the eluted pools per day and pseudo-replica; bait immobilised on MaxiSorp plates (10 µg), library pre-cleared on GST, 2 h binding at 4 °C, five washes; one round per day, days 1-4; value from days 2 and 3

Variant	screen value
chain 1 R15W	0.000302 average fractional NGS count over selection days 2 and 3 (reads of this peptide / all reads for the bait, averaged over …
chain 1 R15L	0.000467 average fractional NGS count over selection days 2 and 3 (reads of this peptide / all reads for the bait, averaged over …
chain 1 R15T	0.00759 average fractional NGS count over selection days 2 and 3 (reads of this peptide / all reads for the bait, averaged over …
chain 1 R15S	0.00343 average fractional NGS count over selection days 2 and 3 (reads of this peptide / all reads for the bait, averaged over …
chain 1 R15D	0.000883 average fractional NGS count over selection days 2 and 3 (reads of this peptide / all reads for the bait, averaged over …
chain 1 R15H	0.00172 average fractional NGS count over selection days 2 and 3 (reads of this peptide / all reads for the bait, averaged over …
chain 1 R15Q	0.000422 average fractional NGS count over selection days 2 and 3 (reads of this peptide / all reads for the bait, averaged over …
chain 1 R15I	0.00013 average fractional NGS count over selection days 2 and 3 (reads of this peptide / all reads for the bait, averaged over …
chain 1 R15E	0.0203 average fractional NGS count over selection days 2 and 3 (reads of this peptide / all reads for the bait, averaged over …
chain 1 R15A	0.000604 average fractional NGS count over selection days 2 and 3 (reads of this peptide / all reads for the bait, averaged over …
chain 1 R15F	0.000621 average fractional NGS count over selection days 2 and 3 (reads of this peptide / all reads for the bait, averaged over …
chain 1 R15G	0.00618 average fractional NGS count over selection days 2 and 3 (reads of this peptide / all reads for the bait, averaged over …
chain 1 R15P	0.00212 average fractional NGS count over selection days 2 and 3 (reads of this peptide / all reads for the bait, averaged over …
chain 1 R15K	0.00112 average fractional NGS count over selection days 2 and 3 (reads of this peptide / all reads for the bait, averaged over …
chain 1 L4T	0.000821 average fractional NGS count over selection days 2 and 3 (reads of this peptide / all reads for the bait, averaged over …
chain 1 L4N	0.000501 average fractional NGS count over selection days 2 and 3 (reads of this peptide / all reads for the bait, averaged over …
chain 1 L4W	0.00434 average fractional NGS count over selection days 2 and 3 (reads of this peptide / all reads for the bait, averaged over …
chain 1 L4H	0.000978 average fractional NGS count over selection days 2 and 3 (reads of this peptide / all reads for the bait, averaged over …
chain 1 L4M	0.0015 average fractional NGS count over selection days 2 and 3 (reads of this peptide / all reads for the bait, averaged over …
chain 1 L4S	0.000672 average fractional NGS count over selection days 2 and 3 (reads of this peptide / all reads for the bait, averaged over …
chain 1 L4G	0.000123 average fractional NGS count over selection days 2 and 3 (reads of this peptide / all reads for the bait, averaged over …
chain 1 L4F	0.00253 average fractional NGS count over selection days 2 and 3 (reads of this peptide / all reads for the bait, averaged over …
chain 1 L4Y	0.000355 average fractional NGS count over selection days 2 and 3 (reads of this peptide / all reads for the bait, averaged over …
chain 1 L4I	0.00171 average fractional NGS count over selection days 2 and 3 (reads of this peptide / all reads for the bait, averaged over …
chain 1 L4Q	0.000264 average fractional NGS count over selection days 2 and 3 (reads of this peptide / all reads for the bait, averaged over …

Variant	screen value
chain 1 L4P	0.00111 average fractional NGS count over selection days 2 and 3 (reads of this peptide / all reads for the bait, averaged over …
chain 1 H3M	0.0014 average fractional NGS count over selection days 2 and 3 (reads of this peptide / all reads for the bait, averaged over …
chain 1 H3W	0.000238 average fractional NGS count over selection days 2 and 3 (reads of this peptide / all reads for the bait, averaged over …
chain 1 H3F	0.000397 average fractional NGS count over selection days 2 and 3 (reads of this peptide / all reads for the bait, averaged over …
chain 1 H3N	0.000146 average fractional NGS count over selection days 2 and 3 (reads of this peptide / all reads for the bait, averaged over …
chain 1 H3Q	0.000537 average fractional NGS count over selection days 2 and 3 (reads of this peptide / all reads for the bait, averaged over …
chain 1 H3V	0.00187 average fractional NGS count over selection days 2 and 3 (reads of this peptide / all reads for the bait, averaged over …
chain 1 H3I	0.000522 average fractional NGS count over selection days 2 and 3 (reads of this peptide / all reads for the bait, averaged over …
chain 1 S7Q	0.00222 average fractional NGS count over selection days 2 and 3 (reads of this peptide / all reads for the bait, averaged over …
chain 1 S7M	0.00193 average fractional NGS count over selection days 2 and 3 (reads of this peptide / all reads for the bait, averaged over …
chain 1 S7N	0.00621 average fractional NGS count over selection days 2 and 3 (reads of this peptide / all reads for the bait, averaged over …
chain 1 S7F	0.00476 average fractional NGS count over selection days 2 and 3 (reads of this peptide / all reads for the bait, averaged over …
chain 1 S7V	0.00627 average fractional NGS count over selection days 2 and 3 (reads of this peptide / all reads for the bait, averaged over …
chain 1 S7H	0.000827 average fractional NGS count over selection days 2 and 3 (reads of this peptide / all reads for the bait, averaged over …
chain 1 S7Y	0.00213 average fractional NGS count over selection days 2 and 3 (reads of this peptide / all reads for the bait, averaged over …
chain 1 P2M	0.000224 average fractional NGS count over selection days 2 and 3 (reads of this peptide / all reads for the bait, averaged over …
chain 1 P2E	0.000462 average fractional NGS count over selection days 2 and 3 (reads of this peptide / all reads for the bait, averaged over …
chain 1 P2D	0.00379 average fractional NGS count over selection days 2 and 3 (reads of this peptide / all reads for the bait, averaged over …
chain 1 P2H	0.000416 average fractional NGS count over selection days 2 and 3 (reads of this peptide / all reads for the bait, averaged over …
chain 1 P2L	0.000238 average fractional NGS count over selection days 2 and 3 (reads of this peptide / all reads for the bait, averaged over …
chain 1 P2T	0.00034 average fractional NGS count over selection days 2 and 3 (reads of this peptide / all reads for the bait, averaged over …
chain 1 P2A	0.00048 average fractional NGS count over selection days 2 and 3 (reads of this peptide / all reads for the bait, averaged over …
chain 1 Q12E	0.000127 average fractional NGS count over selection days 2 and 3 (reads of this peptide / all reads for the bait, averaged over …
chain 1 Q12M	0.00481 average fractional NGS count over selection days 2 and 3 (reads of this peptide / all reads for the bait, averaged over …
chain 1 Q12S	0.000969 average fractional NGS count over selection days 2 and 3 (reads of this peptide / all reads for the bait, averaged over …

Variant	screen value
chain 1 Q12V	0.000654 average fractional NGS count over selection days 2 and 3 (reads of this peptide / all reads for the bait, averaged over …
chain 1 Q12F	0.000426 average fractional NGS count over selection days 2 and 3 (reads of this peptide / all reads for the bait, averaged over …
chain 1 Q12T	0.00582 average fractional NGS count over selection days 2 and 3 (reads of this peptide / all reads for the bait, averaged over …
chain 1 Q12W	0.000548 average fractional NGS count over selection days 2 and 3 (reads of this peptide / all reads for the bait, averaged over …
chain 1 Q12G	0.000919 average fractional NGS count over selection days 2 and 3 (reads of this peptide / all reads for the bait, averaged over …
chain 1 S13H	0.00169 average fractional NGS count over selection days 2 and 3 (reads of this peptide / all reads for the bait, averaged over …
chain 1 S13F	0.000366 average fractional NGS count over selection days 2 and 3 (reads of this peptide / all reads for the bait, averaged over …
chain 1 S13N	0.000503 average fractional NGS count over selection days 2 and 3 (reads of this peptide / all reads for the bait, averaged over …
chain 1 S13V	0.00486 average fractional NGS count over selection days 2 and 3 (reads of this peptide / all reads for the bait, averaged over …
chain 1 S13P	0.00144 average fractional NGS count over selection days 2 and 3 (reads of this peptide / all reads for the bait, averaged over …
chain 1 S13I	0.0065 average fractional NGS count over selection days 2 and 3 (reads of this peptide / all reads for the bait, averaged over …
chain 1 S13E	0.00174 average fractional NGS count over selection days 2 and 3 (reads of this peptide / all reads for the bait, averaged over …
chain 1 S13A	0.000295 average fractional NGS count over selection days 2 and 3 (reads of this peptide / all reads for the bait, averaged over …
chain 1 Q5F	0.00256 average fractional NGS count over selection days 2 and 3 (reads of this peptide / all reads for the bait, averaged over …
chain 1 Q5Y	0.00141 average fractional NGS count over selection days 2 and 3 (reads of this peptide / all reads for the bait, averaged over …
chain 1 Q5W	0.000468 average fractional NGS count over selection days 2 and 3 (reads of this peptide / all reads for the bait, averaged over …
chain 1 Q5H	0.0031 average fractional NGS count over selection days 2 and 3 (reads of this peptide / all reads for the bait, averaged over …
chain 1 Q5G	0.00123 average fractional NGS count over selection days 2 and 3 (reads of this peptide / all reads for the bait, averaged over …
chain 1 Q5M	0.00158 average fractional NGS count over selection days 2 and 3 (reads of this peptide / all reads for the bait, averaged over …
chain 1 Q5L	0.000257 average fractional NGS count over selection days 2 and 3 (reads of this peptide / all reads for the bait, averaged over …
chain 1 Q5A	0.000231 average fractional NGS count over selection days 2 and 3 (reads of this peptide / all reads for the bait, averaged over …
chain 1 Q5N	0.000679 average fractional NGS count over selection days 2 and 3 (reads of this peptide / all reads for the bait, averaged over …
chain 1 Q5T	0.00193 average fractional NGS count over selection days 2 and 3 (reads of this peptide / all reads for the bait, averaged over …
chain 1 P9A	0.00156 average fractional NGS count over selection days 2 and 3 (reads of this peptide / all reads for the bait, averaged over …
chain 1 P9S	0.000178 average fractional NGS count over selection days 2 and 3 (reads of this peptide / all reads for the bait, averaged over …
